Like-named read-outs stand apart in the source and are kept apart here.
Columns and labels:
HfqFL Y25A = HfqFL Y25A (Escherichia coli, UniProt P0A6X3 1-102, Y25A); test: fluorescence polarization
HfqFL WT = HfqFL WT (Escherichia coli, UniProt P0A6X3 1-102); test: EMSA
Hfq65 [1] = biological target: T1, Hfq65 (Escherichia coli, UniProt P0A6X3 1-65); test: X-ray crystallography
Hfq65 R16A/R17A [2] = biological target: T2, Hfq65 R16A/R17A (Escherichia coli, UniProt P0A6X3 1-65, R16A;R17A); test: NMR titration
Hfq65 [3] = biological target: T1, Hfq65; test: X-ray crystallography; remark: listed apart in the source
Hfq65 R16A/R17A [4] = biological target: T2, Hfq65 R16A/R17A; test: NMR titration; remark: listed apart in the source
HfqFL F42S = HfqFL F42S (Escherichia coli, UniProt P0A6X3 1-102, F42S); test: fluorescence polarization

Binder: AUUUUUUA (ssRNA) [AU6A]
- binding result (HfqFL Y25A): binds

Binder: GGGAACAACAAGAAGUUAAGGCGGGGCAAAAAAUA (ssRNA) [rpoS-AA]
- binding result (HfqFL WT): binds

Binder: AAAAAAA (ssRNA) [A7 (unlabeled)]
- binding result (Hfq65 [1]): binds

Binder: AUUUUUUA (ssRNA) [AU6A (unlabeled)]
- binding result (Hfq65 R16A/R17A [2]): binds
- binding result (Hfq65 [3]): binds

Binder: AACAACAAG (ssRNA) [rpoS-AC (unlabeled)]
- binding result (Hfq65 R16A/R17A [4]): binds

Binder: AACAACAAG (ssRNA) [rpoS-AC]
- binding result (HfqFL F42S): binds

Binder: AAAAAAA (ssRNA) [A7]
- binding result (HfqFL F42S): binds
